# Data published in publication PMC9352680, “A comprehensive thermodynamic model for RNA binding by the Saccharomyces cerevisiae Pumilio protein PUF4”.
# Substitutions are numbered along the chain they refer to. Names and notes keep the numbering of the source.
# B1: Ia_S4_P3E.1_K3.1_C3.1_H3.1_[G2C]_A3.1_F3.1_T3.1 (ssRNA)
# RNA: UUUGACAACUGAUCGUUCUUUCUUCUAUAUAUUCUUUCUCGAUCAGUUGUCUUU
# B2: Ic_S4_P3E.1_K3.1_C3.1_H3.1_A3.1_[A6C]_F3.1_T3.1 (ssRNA)
# RNA: B1 RNA with C25G, A29C
# B3: Ic_S4_P3E.1_K3.1_C3.1_H3.1_A3.1_[T5C]_F3.1_T3.1 (ssRNA)
# RNA: B1 RNA with C25G, U28C
# B4: Ia_S4_P3E.1_K3.1_C3.1_H3.1_[A4T]_A3.1_F3.1_T3.1 (ssRNA)
# RNA: B1 RNA with C25G, A27U
# B5: Ic_S4_P4E.1_K4.1_C4.1_H4.1_A4.1_[T5C]_F4.1_[A9T]_T4.1 (ssRNA)
# RNA: UUUGACAACUGAUCGUUCUUUCUUGUACAUUUUUCUUUCUCGAUCAGUUGUCUUU
# B6: Ib_S4_P4E.1_K4.1_C4.1_H4.1_[T3C]_[A4C]_A4.1_F4.1_T4.1 (ssRNA)
# RNA: B5 RNA with U26C, A27C, C28U, U32A
# B7: Ib_S4_P4E.1_K4.1_C4.1_H4.1_[T1G]_[A4G]_A4.1_F4.1_T4.1 (ssRNA)
# RNA: B5 RNA with U24G, A27G, C28U, U32A
# B8: Ib_S4_P4E.1_K4.1_C4.1_H4.1_[T3C]_A4.1_[T7A]_F4.1_T4.1 (ssRNA)
# RNA: B5 RNA with U26C, C28U, U30A, U32A
# B9: Ib_S4_P4E.1_K4.1_C4.1_H4.1_A4.1_[A6T]_F4.1_[A9C]_T4.1 (ssRNA)
# RNA: B5 RNA with C28U, A29U, U32C
# B10: Ib_S4_P4E.1_K4.1_C4.1_H4.1_A4.1_[A6G]_F4.1_[A9C]_T4.1 (ssRNA)
# RNA: B5 RNA with C28U, A29G, U32C
# B11: Ib_S4_P4E.1_K4.1_C4.1_H4.1_A4.1_[A6C]_F4.1_[A9T]_T4.1 (ssRNA)
# RNA: B5 RNA with C28U, A29C
# B12: Ib_S4_P4E.1_K4.1_C4.1_H4.1_[T1A]_[T3C]_A4.1_F4.1_T4.1 (ssRNA)
# RNA: B5 RNA with U24A, U26C, C28U, U32A
# B13: Ib_S4_P4E.1_K4.1_C4.1_H4.1_[G2T]_[A4C]_A4.1_F4.1_T4.1 (ssRNA)
# RNA: B5 RNA with G25U, A27C, C28U, U32A
# B14: Ib_S4_P4E.1_K4.1_C4.1_H4.1_[A4C]_A4.1_[T5A]_F4.1_T4.1 (ssRNA)
# RNA: B5 RNA with A27C, C28A, U32A
# B15: Ib_S4_P4E.1_K4.1_C4.1_H4.1_[G2T]_[T3C]_A4.1_F4.1_T4.1 (ssRNA)
# RNA: B5 RNA with G25U, U26C, C28U, U32A
# B16: Ib_S4_P4E.1_K4.1_C4.1_H4.1_[T1A]_[A4T]_A4.1_F4.1_T4.1 (ssRNA)
# RNA: B5 RNA with U24A, A27U, C28U, U32A
# B17: Ib_S4_P4E.1_K4.1_C4.1_H4.1_[T1A]_[G2T]_A4.1_F4.1_T4.1 (ssRNA)
# RNA: B5 RNA with U24A, G25U, C28U, U32A
# B18: Ib_S4_P4E.1_K4.1_C4.1_H4.1_[T1G]_A4.1_[A6T]_F4.1_T4.1 (ssRNA)
# RNA: B5 RNA with U24G, C28U, A29U, U32A
# B19: Ib_S4_P4E.1_K4.1_C4.1_H4.1_A4.1_[A6T]_F4.1_[A9G]_T4.1 (ssRNA)
# RNA: B5 RNA with C28U, A29U, U32G
# B20: Ib_S4_P4E.1_K4.1_C4.1_H4.1_[G2A]_[A4T]_A4.1_F4.1_T4.1 (ssRNA)
# RNA: B5 RNA with G25A, A27U, C28U, U32A
# B21: Ib_S4_P4E.1_K4.1_C4.1_H4.1_[G2T]_A4.1_[T7A]_F4.1_T4.1 (ssRNA)
# RNA: B5 RNA with G25U, C28U, U30A, U32A
# B22: Ib_S4_P4E.1_K4.1_C4.1_H4.1_[T1C]_[G2T]_A4.1_F4.1_T4.1 (ssRNA)
# RNA: B5 RNA with U24C, G25U, C28U, U32A
# B23: Ib_S4_P4E.1_K4.1_C4.1_H4.1_[T1C]_A4.1_[A6G]_F4.1_T4.1 (ssRNA)
# RNA: B5 RNA with U24C, C28U, A29G, U32A
# B24: Ib_S4_P4E.1_K4.1_C4.1_H4.1_[T1C]_[G2C]_A4.1_F4.1_T4.1 (ssRNA)
# RNA: B5 RNA with U24C, G25C, C28U, U32A
# B25: Ic_S4_P4E.1_K4.1_C4.1_H4.1_A4.1_[T7C]_F4.1_[A9T]_T4.1 (ssRNA)
# RNA: B5 RNA with C28U, U30C
# B26: Ib_S4_P4E.1_K4.1_C4.1_H4.1_[G2T]_[A4G]_A4.1_F4.1_T4.1 (ssRNA)
# RNA: B5 RNA with G25U, A27G, C28U, U32A
# B27: Ib_S4_P4E.1_K4.1_C4.1_H4.1_[T3C]_A4.1_[A6T]_F4.1_T4.1 (ssRNA)
# RNA: B5 RNA with U26C, C28U, A29U, U32A
# B28: Ib_S4_P4E.1_K4.1_C4.1_H4.1_[T1C]_[A4T]_A4.1_F4.1_T4.1 (ssRNA)
# RNA: B5 RNA with U24C, A27U, C28U, U32A
# B29: Ib_S4_P4E.1_K4.1_C4.1_H4.1_[T1G]_A4.1_[T5C]_F4.1_T4.1 (ssRNA)
# RNA: B5 RNA with U24G, U32A
# B30: Ib_S4_P4E.1_K4.1_C4.1_H4.1_[G2C]_[T3C]_A4.1_F4.1_T4.1 (ssRNA)
# RNA: B5 RNA with G25C, U26C, C28U, U32A
# B31: Ib_S4_P4E.1_K4.1_C4.1_H4.1_[T1G]_A4.1_[T7A]_F4.1_T4.1 (ssRNA)
# RNA: B5 RNA with U24G, C28U, U30A, U32A
# B32: Ib_S4_P4E.1_K4.1_C4.1_H4.1_[A4G]_A4.1_[A6G]_F4.1_T4.1 (ssRNA)
# RNA: B5 RNA with A27G, C28U, A29G, U32A
# B33: Ib_S4_P4E.1_K4.1_C4.1_H4.1_[T1C]_A4.1_[T5A]_F4.1_T4.1 (ssRNA)
# RNA: B5 RNA with U24C, C28A, U32A
# B34: Ib_S4_P4E.1_K4.1_C4.1_H4.1_[T1A]_A4.1_[A6C]_F4.1_T4.1 (ssRNA)
# RNA: B5 RNA with U24A, C28U, A29C, U32A
# B35: Ib_S4_P4E.1_K4.1_C4.1_H4.1_[T1A]_[G2C]_A4.1_F4.1_T4.1 (ssRNA)
# RNA: B5 RNA with U24A, G25C, C28U, U32A
# B36: Ib_S4_P4E.1_K4.1_C4.1_H4.1_[G2A]_[A4G]_A4.1_F4.1_T4.1 (ssRNA)
# RNA: B5 RNA with G25A, A27G, C28U, U32A
# B37: Ib_S4_P4E.1_K4.1_C4.1_H4.1_[T3C]_A4.1_[T7C]_F4.1_T4.1 (ssRNA)
# RNA: B5 RNA with U26C, C28U, U30C, U32A
# B38: Ib_S4_P4E.1_K4.1_C4.1_H4.1_[T1C]_A4.1_[A6T]_F4.1_T4.1 (ssRNA)
# RNA: B5 RNA with U24C, C28U, A29U, U32A
# B39: Ib_S4_P4E.1_K4.1_C4.1_H4.1_[T1G]_[A4T]_A4.1_F4.1_T4.1 (ssRNA)
# RNA: B5 RNA with U24G, A27U, C28U, U32A
# B40: Ib_S4_P4E.1_K4.1_C4.1_H4.1_A4.1_[T7C]_F4.1_[A9C]_T4.1 (ssRNA)
# RNA: B5 RNA with C28U, U30C, U32C
# B41: Ib_S4_P4E.1_K4.1_C4.1_H4.1_[T1A]_A4.1_[A6T]_F4.1_T4.1 (ssRNA)
# RNA: B5 RNA with U24A, C28U, A29U, U32A
# B42: Ib_S4_P4E.1_K4.1_C4.1_H4.1_[G2A]_A4.1_[T7A]_F4.1_T4.1 (ssRNA)
# RNA: B5 RNA with G25A, C28U, U30A, U32A
# B43: Ic_S4_P4E.1_K4.1_C4.1_H4.1_A4.1_[T7G]_F4.1_[A9G]_T4.1 (ssRNA)
# RNA: B5 RNA with C28U, U30G, U32G
# B44: Ib_S4_P4E.1_K4.1_C4.1_H4.1_[G2T]_A4.1_[T5C]_F4.1_T4.1 (ssRNA)
# RNA: B5 RNA with G25U, U32A
# B45: Ib_S4_P4E.1_K4.1_C4.1_H4.1_[T3G]_[A4T]_A4.1_F4.1_T4.1 (ssRNA)
# RNA: B5 RNA with U26G, A27U, C28U, U32A
# B46: Ia_S4_P4E.1_K4.1_C4.1_H4.1_A4.1_F4.1_[T8C]_T4.1 (ssRNA)
# RNA: B5 RNA with C28U, U31C, U32A
# B47: Ib_S4_P4E.1_K4.1_C4.1_H4.1_[T1C]_[G2A]_A4.1_F4.1_T4.1 (ssRNA)
# RNA: B5 RNA with U24C, G25A, C28U, U32A
# B48: Ib_S4_P4E.1_K4.1_C4.1_H4.1_[G2T]_A4.1_[A6C]_F4.1_T4.1 (ssRNA)
# RNA: B5 RNA with G25U, C28U, A29C, U32A
# B49: Ib_S4_P4E.1_K4.1_C4.1_H4.1_[T3C]_A4.1_[T7G]_F4.1_T4.1 (ssRNA)
# RNA: B5 RNA with U26C, C28U, U30G, U32A
# B50: Ic_S4_P4E.1_K4.1_C4.1_H4.1_A4.1_[A6C]_F4.1_[A9G]_T4.1 (ssRNA)
# RNA: B5 RNA with C28U, A29C, U32G
# B51: Ib_S4_P4E.1_K4.1_C4.1_H4.1_[T1G]_[G2T]_A4.1_F4.1_T4.1 (ssRNA)
# RNA: B5 RNA with U24G, G25U, C28U, U32A
# B52: Ib_S4_P4E.1_K4.1_C4.1_H4.1_[G2C]_A4.1_[T7G]_F4.1_T4.1 (ssRNA)
# RNA: B5 RNA with G25C, C28U, U30G, U32A
# B53: Ib_S4_P4E.1_K4.1_C4.1_H4.1_[G2C]_A4.1_[A6C]_F4.1_T4.1 (ssRNA)
# RNA: B5 RNA with G25C, C28U, A29C, U32A
# B54: Ib_S4_P4E.1_K4.1_C4.1_H4.1_[A4T]_A4.1_[T5A]_F4.1_T4.1 (ssRNA)
# RNA: B5 RNA with A27U, C28A, U32A
# B55: Ib_S4_P4E.1_K4.1_C4.1_H4.1_[T1A]_A4.1_[T5A]_F4.1_T4.1 (ssRNA)
# RNA: B5 RNA with U24A, C28A, U32A
# B56: Ib_S4_P4E.1_K4.1_C4.1_H4.1_[T1G]_[A4C]_A4.1_F4.1_T4.1 (ssRNA)
# RNA: B5 RNA with U24G, A27C, C28U, U32A
# Biological target: T1, PUF4 RNA-binding domain (Saccharomyces cerevisiae, UniProt P25339 537-888)
# T1 sequence: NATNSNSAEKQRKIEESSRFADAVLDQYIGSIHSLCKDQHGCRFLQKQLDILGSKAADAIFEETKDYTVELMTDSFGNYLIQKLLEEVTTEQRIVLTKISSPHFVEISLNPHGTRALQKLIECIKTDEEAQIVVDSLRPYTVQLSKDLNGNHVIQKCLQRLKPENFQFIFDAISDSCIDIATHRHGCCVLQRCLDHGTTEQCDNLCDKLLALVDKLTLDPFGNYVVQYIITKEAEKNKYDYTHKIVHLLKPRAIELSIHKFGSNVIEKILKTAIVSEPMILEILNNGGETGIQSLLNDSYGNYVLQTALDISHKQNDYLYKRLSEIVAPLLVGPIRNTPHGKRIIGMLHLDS
# Test: Mg; RNA-MaP; 20 mM Na-HEPES pH 7.4, 30 mM KOAc, 0.75 mM MgCl2, 0.1% Tween-20, 5% glycerol, 0.1 mg/mL BSA, 2 mM DTT; 25 C; 0.0125-409.6 nM protein
# Conditions: tags: N-His6-TEV cleaved; C-SNAP kept, Cy3B-labelled; label: tethered on chip by stalled RNA polymerase
row,Binder,Kd [nM]
1,B1,360
2,B2,10.1
3,B3,1.93
4,B4,86.8
5,UCUCUUUGUCUAUAUCUCUU (ssRNA) [Ia_S1_P3E.1_K3.1_C3.1_H3.1_[A4C]_A3.1_F3.1_T3.1],1170
6,B5,1.94
7,B6,814
8,B7,40.1
9,B8,215
10,B9,17.8
11,B10,15.5
12,B11,10.8
13,B12,1880
14,B13,> 2300
15,B14,48.4
16,B15,2000
17,B16,> 2300
18,B17,686
19,B18,971

row,Binder,Kd [nM]
1,B19,8.2
2,B20,669
3,B21,1200
4,B22,401
5,B23,700
6,B24,331
7,B25,7
8,B26,7.27
9,B27,202
10,B28,615
11,B29,42.9
12,B30,2090
13,B31,332
14,B32,10.8
15,B33,182
16,B34,2270
17,B35,481
18,B36,15.2
19,B37,48.1

row,Binder,Kd [nM]
1,B38,133
2,B39,1600
3,B40,10.1
4,B41,1520
5,B42,75.2
6,B43,13.5
7,B44,356
8,B45,1280
9,B46,9.03
10,B47,168
11,B48,> 2300
12,B49,434
13,B50,11.3
14,B51,41.2
15,B52,> 2300
16,B53,> 2300
17,B54,13.4
18,B55,858
19,B56,> 2300
